We go through two molecules from patent publication US6991909B2, “Enkurin and uses thereof” (University of Massachusetts, priority 2002, dated 2006).

Assay [1] concerns the target T1, enkurin-HA (Mus musculus (Mouse)) (UniProt Q6SP97).
T1 sequence: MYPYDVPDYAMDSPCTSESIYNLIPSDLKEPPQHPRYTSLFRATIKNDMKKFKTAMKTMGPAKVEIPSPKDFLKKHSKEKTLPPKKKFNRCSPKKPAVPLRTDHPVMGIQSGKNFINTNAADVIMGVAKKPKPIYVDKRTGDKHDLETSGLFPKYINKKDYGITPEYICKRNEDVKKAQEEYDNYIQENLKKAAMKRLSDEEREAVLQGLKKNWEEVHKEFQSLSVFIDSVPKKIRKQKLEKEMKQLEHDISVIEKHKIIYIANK
Nature of the assay: co-immunoprecipitation with anti-HA-Sepharose from HEK/TRPC2 cell extracts, blot with anti-RDAS; peptide competes with TRPC2.

The next assay relates to TRPC2 channel. Nature of the assay: Perforated whole cell patch clamp of ATP-evoked currents in HEK-293 cells stably transfected with TRPC2. The assay is classed as cell-based, mouse. The source says: The effects of enkurin on the ion channel activity of TRPC2 were examined using HEK-293 cells that were stably transfected with TRPC2. HEK cells provide a good model for the study of receptor-activated ion channels since they have very low levels of endogenous ion channel activity and thus provide a relatively uncomplicated model for the study of exogenous channels. These cells also have endogenous […] receptors that regulate phospholipase C (PLC), thereby providing a facile and reversible means for activating PLC-dependent ion channels, HEK cells have been used to study TRPC2 function (Jungnickel et al., supra 2001).
In experiments on the TRPC2 channel in HEK cells, ion channel activity was measured using the perforated, whole cell patch clamp. This configuration permits the determination of ion currents while simultaneously maintaining cytoplasmic integrity.
ATP ([…]) evoked an inward current in TRPC2-expressing HEK cells (Derassi et al, 1998, Trends Cell Biol 8:84-87) that reaches peak amplitude in 20-30 seconds. However, when TRPC2 and enkurin were co-expressed (trace 2), the evoked current was 5-6 times larger (131+/−12 pA, n=5). This current activates about 25 times faster (peak amplitude in 0.5-1 seconds) and inactivates more rapidly. Total TRPC2 current, as estimated by integrating the areas beneath these traces, is increased nine +/−two-fold by enkurin. […] Anti-RDAS blocked >95% of the ATP-evoked current in cells that had been co-transfected with TRPC2 and with enkurin (trace 2). Thus, enkurin is stimulating TRPC2 currents, not acting at some undefined endogenous channel or forming a channel itself.
In the assay, HEK cells are used that constitutively express TRPC2. Such cell lines can be produced using methods known in the art. The line should express reproducible levels of TRPC2 current. In a line that we developed, enkurin increased the peak amplitude of ATP-evoked TRPC2 currents by >5-6 fold and the activation and inactivation rates by 25 fold. In addition, this signal can be “zero-ed” using anti-RDAS, the TRPC2 blocking antibody (FIG. 7). Given this magnitude of current enhancement by enkurin in such a cell line, even subtle effects of enkurin mutants, candidate compounds, or antisense molecules are detectable.
A general note: The patch-clamp technique gives a direct electrical read-out from membranes.

In assay [2] the target is T2, TRPC2 stably expressed in HEK-293 cells (mouse, UniProt Q9R244 1-1172).
T2 sequence (looked up): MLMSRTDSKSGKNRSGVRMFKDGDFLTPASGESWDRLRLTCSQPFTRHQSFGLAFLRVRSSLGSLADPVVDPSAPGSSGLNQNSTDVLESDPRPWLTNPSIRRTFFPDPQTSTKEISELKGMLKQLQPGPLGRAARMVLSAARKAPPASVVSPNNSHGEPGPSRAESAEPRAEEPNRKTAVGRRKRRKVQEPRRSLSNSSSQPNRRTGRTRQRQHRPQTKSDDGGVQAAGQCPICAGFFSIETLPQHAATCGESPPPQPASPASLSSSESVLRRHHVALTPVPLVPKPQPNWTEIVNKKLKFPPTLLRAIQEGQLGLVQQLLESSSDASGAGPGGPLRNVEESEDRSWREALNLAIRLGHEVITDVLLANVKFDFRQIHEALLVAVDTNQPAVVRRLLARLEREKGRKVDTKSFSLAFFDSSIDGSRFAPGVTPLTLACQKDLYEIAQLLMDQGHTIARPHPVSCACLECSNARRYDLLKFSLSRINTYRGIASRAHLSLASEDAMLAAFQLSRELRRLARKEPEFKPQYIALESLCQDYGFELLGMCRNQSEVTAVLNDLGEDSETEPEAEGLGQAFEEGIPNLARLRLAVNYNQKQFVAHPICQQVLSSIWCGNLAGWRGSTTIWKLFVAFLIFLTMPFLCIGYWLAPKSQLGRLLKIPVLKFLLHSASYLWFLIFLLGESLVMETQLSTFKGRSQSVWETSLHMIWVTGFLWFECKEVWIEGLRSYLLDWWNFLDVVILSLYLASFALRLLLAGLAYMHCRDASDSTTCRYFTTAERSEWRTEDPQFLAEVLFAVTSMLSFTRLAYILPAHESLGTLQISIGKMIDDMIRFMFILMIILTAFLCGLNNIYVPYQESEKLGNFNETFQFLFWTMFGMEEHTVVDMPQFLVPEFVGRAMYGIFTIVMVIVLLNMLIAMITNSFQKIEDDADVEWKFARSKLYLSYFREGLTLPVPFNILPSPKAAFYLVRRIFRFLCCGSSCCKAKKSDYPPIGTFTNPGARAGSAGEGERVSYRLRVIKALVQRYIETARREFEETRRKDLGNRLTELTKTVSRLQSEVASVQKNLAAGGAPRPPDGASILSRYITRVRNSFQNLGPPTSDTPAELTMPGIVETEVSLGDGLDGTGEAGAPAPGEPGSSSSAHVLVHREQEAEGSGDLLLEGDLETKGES
Nature of the assay: cell-based or functional assay.

The mark [3] stands for this setting: TRPC2 and enkurin co-expressed vs TRPC2 alone.

For the molecule LPQHAATCGESPPPQPASPASLSSS [TRPC2336-361 peptide], the reduction of co-immunoprecipitation of TRPC2 with enkurin-HA in assay [1] is above 90%.

B1: enkurin (other)
chain: MDSPCTSESIYNLIPSDLKEPPQHPRYTSLFRATIKNDMKKFKTAMKTMGPAKVEIPSPKDFLKKHSKEKTLPPKKKFNRCSPKKPAVPLRTDHPVMGIQSGKNFINTNAADVIMGVAKKPKPIYVDKRTGDKHDLETSGLFPKYINKKDYGITPEYICKRNEDVKKAQEEYDNYIQENLKKAAMKRLSDEEREAVLQGLKKNWEEVHKEFQSLSVFIDSVPKKIRKQKLEKEMKQLEHDISVIEKHKIIYIANK
With B1, the “time to peak amplitude” value in the assay with TRPC2 channel (TRPC2 and enkurin co-expressed) was in the range of 0.5 to 1 s. Further, in the assay on TRPC2 channel (setting [3]), the current activates faster result is “about 25 times”; the “increase of peak amplitude of ATP-evoked TRPC2 current” value was 5-6 fold; the “increase of total TRPC2 current, estimated by integrating areas beneath traces” value is recorded as “nine +/−two”. Moreover, the ATP-evoked current with TRPC2 channel (TRPC2 and enkurin co-expressed, n=5) was 131+/−12 pA. In addition, the “stimulation of ATP-evoked current relative to TRPC2 alone” value with TRPC2 channel (enkurin co-expressed with deletion mutant of TRPC2 lacking the PKD1 domain) was “no stimulation”. Also, in assay [2], the “activation rate of the ATP-evoked current” value was around 25 fold and the “total TRPC2 current (integrated area beneath traces)” value came out at 9 fold.
